Test results taken from US6995141B1, “Interleukin 1β protease and interleukin 1β protease inhibitors” (Vertex Pharmaceuticals Incorporated, priority 1990, dated 2006).
Non-standard residues stand in square brackets, D forms with d.

How the values were obtained:
[1] = target: T1, purified human IL-1β pro enzyme (Homo sapiens, UniProt P29466); experiment: Cleavage of synthetic peptide substrates by purified human IL-1β pro enzyme (RP-HPLC); type: biochemical; set-up: key to Reactivity Relative To Peptide 1: reactivity relative to peptide Ala112–Ser121 of precursor IL-1β; conditions: for ability of IL-1β pro to cleave the substrate peptide (in words): Tables 1 and 2
T1 construct: beginning with amino acid 120; Based upon a molecular weight analysis, the approximate C-terminus of mature IL-1β pro is about amino acid 297; endogenous in cells; host or cells: THP-1 cells (ATCC), stimulated, lysed, six-step chromatography
T1 sequence (P29466 120-297): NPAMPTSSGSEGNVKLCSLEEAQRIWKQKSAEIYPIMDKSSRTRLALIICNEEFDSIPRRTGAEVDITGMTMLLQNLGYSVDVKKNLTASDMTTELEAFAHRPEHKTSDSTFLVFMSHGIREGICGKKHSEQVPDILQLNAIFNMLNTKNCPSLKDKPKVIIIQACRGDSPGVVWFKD
T1 sequence (P29466 317-404): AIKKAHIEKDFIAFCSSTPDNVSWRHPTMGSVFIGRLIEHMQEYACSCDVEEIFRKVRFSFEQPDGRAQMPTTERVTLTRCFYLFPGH
Description: This example illustrates the range of substrate specificity of purified human IL-1β pro enzyme to cleave a group of amino acid sequences. A variety of peptide substrates were prepared featuring changes in individual amino acids in the region corresponding to the cleavage site in human precursor IL-1β (His 115 to Pro 118). The reactivity of the peptide substrates was expressed relative to the peptide corresponding to Ala 112 to Ser 121 of the precursor IL-1β sequence.
Peptide solutions of standard concentration were prepared by dissolving about 2–3 mg of peptide substrate in water, loading the solution onto a Waters Sep-Pak C18 cartridge and washing three times with 5 ml of water. The peptide substrates were eluted with acetonitrile and then evaporated to dryness. Each substrate was standardized to 1 mM by amino acid analysis prior to use.
Purified human IL-1β pro enzyme (10 μl), peptide substrate in water (10 μl), and 10 mM Tris buffer, pH 8.0 containing 25% v/v glycerol (10 μl) were mixed and the mixtures were incubated at 37° C. for four hours. The reaction was quenched with by adding 1 M glycine/HCl buffer pH 2.0 (10 μl). The samples were then analyzed using RP-HPLC with a Vydac C18 column (0.46 cm×25 cm) and eluting with a linear gradient from 100% solvent A to 70% solvent A/30% solvent B over 30 minutes at a flow rate of 1 ml/min. The effluent was monitored at 280 nm absorbing product.
This example illustrates the effect of substrate peptide length on the ability of human IL-1β pro enzyme to cleave peptide substrates. […] Five substrate peptides were made that correspond to the amino acid sequence of the IL-1β pro cleavage site of human precursor IL-1.

[2] = target: T2, protease that generates mature IL-1β from the precursor polypeptide (Homo sapiens, UniProt P29466); conditions: Black et al., FEBS Lett., 247:386–90 (1989); cited from earlier work
T2 construct: host or cells: partially purified (about 500-fold) from THP-1 cell lysates, per Black et al., FEBS Lett. 247:386-90 (1989)
T2 sequence (P29466 120-297 limits assumed): T1 sequence (P29466 120-297)
T2 sequence (P29466 317-404 limits assumed): T1 sequence (P29466 317-404)

IL-1β pro = target: T3, IL-1β pro (Homo sapiens, UniProt P29466); experiment: Inhibition of IL-1β pro catalyzed degradation of preIL-1β, in vitro assay with Western blot; type: biochemical
T3 construct: beginning with amino acid 120; Based upon a molecular weight analysis, the approximate C-terminus of mature IL-1β pro is about amino acid 297
T3 sequence (P29466 120-297): T1 sequence (P29466 120-297)
T3 sequence (P29466 317-404): T1 sequence (P29466 317-404)
Description: Products were subjected to SDS-PAGE, transferred to nitrocellulose, and probed with an antibody raised against the COOH terminus of mature IL-1β. Lane 3, preIL-1β incubated with 25 μM of inhibitor; lane 4, preIL-1β incubated with 10 μM of inhibitor; lane 5, preIL-1β incubated with 5 μM inhibitor, lane 6, preIL-1β incubated with 1 μM inhibitor.
Boc-Asp-CH2F was tested for its ability to inhibit IL-1β pro catalyzed degradation of preIL-1β using an in vitro assay method. Black, et al., J. Biol. Chem., 263(19): 9437 (1988). Boc-Asp-CH2F was prepared in accordance with the method of example of 1A.
5 μl of preIL-1β (about 50 μg/ml in PBS) was mixed with 10 μl of purified IL-1β pro (15–75 μg/ml in PBS) and incubated at 37° C. for 30 minutes. The incubation was terminated by placing the samples on Dry Ice or by the addition of SDS sample buffer. PMSF was then added to a concentration of 1 mM, and the samples were dialyzed against water. After dialysis, the samples were concentrated to dryness in a Speed-Vac concentrator and dissolved in SDS sample buffer.
SDS-PAGE was carried out with 12% polyacrylamide gels. The gels were placed in transfer buffer (0.192 M glycine. 0.025 M Tris-HCl (pH 8.3), 20% v/v methanol), and protein was then electrophoresed onto nitrocellulos (Sartorius) in a Hoeffer transfer apparatus (1 h at maximum voltage). […]

[3] = target: Peptide 6, Ala-Tyr-Val-His-Asp-Val-Pro-Val-Arg-Ser
[4] = target: Peptide 2, Ala-Tyr-Val-His-Asn-Ala-Pro-Val-Arg-Ser
[5] = target: Peptide 5, Ala-Tyr-Val-His-Asp-Gly-Pro-Val-Arg-Ser
[6] = target: Peptide 3, Ala-Tyr-Val-His-Glu-Ala-Pro-Val-Arg-Ser
[7] = target: Peptide 4, Ala-Tyr-Val-His-(D-Asp)-Ala-Pro-Val-Arg-Ser
[8] = target: Peptide 8, Ala-Tyr-Val-His-Asp-Ala-Ala-Val-Arg-Ser
[9] = target: Peptide 1, Ala-Tyr-Val-His-Asp-Ala-Pro-Val-Arg-Ser (human)
[10] = target: Peptide 7, Ala-Tyr-Val-Phe-Asp-Ala-Pro-Val-Arg-Ser
[11] = target: T4, Peptide 10, Ac-Tyr-Val-His-Asp-Ala-Pro-Val-Arg-NH2 (human)
T4 sequence (peptide, N-terminal acetyl (Ac-); C-terminal amide (-NH2)): YVHDAPVR

[12] = target: Peptide 9, Glu-Ala-Tyr-Val-His-Asp-Ala-Pro (human)
[13] = Table 1, changes at cleavage site, 37° C., four hours, extent of peptide cleavage by RP-HPLC peak area at 280 nm
[14] = Table 2, effect of substrate peptide length, conducted as in Example 1

## Ala-Tyr-Val-His-(D-Asp)-Ala-Pro-Val-Arg-Ser (Seq. I.D. No. 16) (Ac-AYVH[dD]APVRS-NH2) [Peptide 4, substrate peptide, Asp changed to D-aspartate]
[1]; [13]
  Reactivity Relative To Peptide 1: <0.01
[1]
  ability of IL-1β pro to cleave the substrate peptide (in words): profound effect on the ability of IL-1β pro to cleave the substrate

## Ala-Tyr-Val-His-Asp-Gly-Pro-Val-Arg-Ser (Seq. I.D. No. 17) (AYVHDGPVRS) [Peptide 5, substrate peptide, P1′ alanine replaced with glycine]
[1]
  times more reactive than peptide 1: 3.4 times
[1]; [13]
  Reactivity Relative To Peptide 1: 3.40

## Tyr-Val-His-Asp-Ala-Pro-Val-Arg- (Seq. I.D. No. 22) (Ac-YVHDAPVR-NH2) [Peptide 10, eight amino acid substrate peptide]
[1]; [14]
  Reactivity Relative To Peptide 1: 2.40
[1]
  ability of IL-1β pro to cleave the substrate peptide (in words): cleaved most efficiently

## His-Asp-Ala-Pro- (Seq. I.D. No. 24) (HDAP) [Peptide 12, four amino acid substrate peptide]
[1]; [14]
  Reactivity Relative To Peptide 1: Not cleaved

## Ala-Tyr-Val-His-Asp-Ala-Ala-Val-Arg-Ser (Seq. I.D. No. 20) (AYVHDAAVRS) [Peptide 8, substrate peptide, P2′ proline changed to alanine]
[1]; [13]
  Reactivity Relative To Peptide 1: 0.47
[1]
  ability of IL-1β pro to cleave the substrate peptide (in words): still cleaved by human IL-1β pro but only half as efficiently

## Glu-Ala-Tyr-Val-His-Asp-Ala-Pro- (Seq. I.D. No. 21) (EAYVHDAPVRSL) [Peptide 9, substrate peptide of the precursor IL-1β cleavage site]
[1]; [14]
  Reactivity Relative To Peptide 1: 0.74

## CCN1C(=O)C=CC1=O [N-ethylmaleimide]
[2]
  inhibition of the protease (in words): inhibited

## Ala-Tyr-Val-His-Asp-Val-Pro-Val-Arg-Ser (Seq. I.D. No. 18) (AYVHDVPVRS) [Peptide 6, substrate peptide, P1′ alanine changed to valine]
[1]; [13]
  Reactivity Relative To Peptide 1: <0.05
[1]
  ability of IL-1β pro to cleave the substrate peptide (in words): effectively prevents proteolytic cleavage

## O=C(O)CI [iodoacetate]
[2]
  inhibition of the protease (in words): inhibited

## CC(C)(C)OC(=O)N[C@@H](CC(=O)O)C(=O)CF [Boc-Asp-CH2F]
IL-1β pro; inhibitor concentration 1 μM
  inhibition of generation of mature IL-1β from preIL-1β: partially inhibits
IL-1β pro; inhibitor concentration 5 μM
  inhibition of generation of mature IL-1β from preIL-1β: completely inhibits

## Ala-Tyr-Val-His-Asn-Ala-Pro-Val-Arg-Ser (Seq. I.D. No. 14) (AYVHNAPVRS) [Peptide 2, substrate peptide, Asp changed to asparagine]
[1]; [13]
  Reactivity Relative To Peptide 1: <0.01
[1]
  ability of IL-1β pro to cleave the substrate peptide (in words): profound effect on the ability of IL-1β pro to cleave the substrate

## Ala-Tyr-Val-His-Glu-Ala-Pro-Val-Arg-Ser (Seq. I.D. No. 15) (AYVHEAPVRS) [Peptide 3, substrate peptide, Asp changed to glutamic acid]
[1]; [13]
  Reactivity Relative To Peptide 1: <0.05
[1]
  ability of IL-1β pro to cleave the substrate peptide (in words): profound effect on the ability of IL-1β pro to cleave the substrate

## Val-His-Asp-Ala-Pro-Val- (Seq. I.D. No. 23) (VHDAPV) [Peptide 11, six amino acid substrate peptide]
[1]; [14]
  Reactivity Relative To Peptide 1: Not cleaved

## Ala-Tyr-Val-Phe-Asp-Ala-Pro-Val-Arg-Ser (Seq. I.D. No. 19) (AYVFDAPVRS) [Peptide 7]
[1]; [13]
  Reactivity Relative To Peptide 1: 0.50
[1]
  ability of IL-1β pro to cleave the substrate peptide (in words): A similar result was obtained

B1: purified human IL-1β pro enzyme (interleukin 1β protease), purified from THP-1 cells (enzyme)
chain: T1 sequence (P29466 120-297)
[3]
  Reactivity Relative To Peptide 1 (peptide cleavage, RP-HPLC) (relative to Peptide 1): < 0.05
[4]
  Reactivity Relative To Peptide 1 (peptide cleavage, RP-HPLC) (relative to Peptide 1): < 0.01
[5]
  Reactivity Relative To Peptide 1 (peptide cleavage, RP-HPLC) (relative to Peptide 1): 3.4
[6]
  Reactivity Relative To Peptide 1 (peptide cleavage, RP-HPLC) (relative to Peptide 1): < 0.05
[7]
  Reactivity Relative To Peptide 1 (peptide cleavage, RP-HPLC) (relative to Peptide 1): < 0.01
[8]
  Reactivity Relative To Peptide 1 (peptide cleavage, RP-HPLC) (relative to Peptide 1): 0.47
[9]
  Reactivity Relative To Peptide 1 (peptide cleavage, RP-HPLC) (relative to Peptide 1): 1
[10]
  Reactivity Relative To Peptide 1 (peptide cleavage, RP-HPLC) (relative to Peptide 1): 0.5
[11]
  Reactivity Relative To Peptide 1 (peptide cleavage, RP-HPLC) (relative to Peptide 1): 2.4
[12]
  Reactivity Relative To Peptide 1 (peptide cleavage, RP-HPLC) (relative to Peptide 1): 0.74
